In paper PMC5214336:

How the values were obtained:
[1] = target: 5AG model TA substrate labelled with Cm (S. cerevisiae) (UniProt P25385); experiment: FRET or BRET; stopped-flow time courses of TA transfer with Get4/5: ~50 nM Sgt2•TA^Cm in 150 nM Sgt2 mixed 1:1 with 400 nM Get3^BDP, 400 nM Get4/5, 2 mM ATP; donor fluorescence at 445 nm; biphasic fit
[2] = target: Bos1-FisC model TA substrate labelled with Cm (S. cerevisiae); experiment: as above
[3] = target: 3AG model TA substrate labelled with Cm (S. cerevisiae) (UniProt P25385); experiment: as above
[4] = target: Bos1 model TA substrate labelled with 7-hydroxycoumaryl ethylglycine (Cm) (S. cerevisiae) (UniProt P25385); experiment: as above
[5] = target: 2AG model TA substrate labelled with Cm (S. cerevisiae) (UniProt P25385); experiment: as above
[6] = target: 4AG model TA substrate labelled with Cm (S. cerevisiae) (UniProt P25385); experiment: as above
[7] = target: 5AG model TA substrate labelled with Cm (S. cerevisiae) (UniProt P25385); experiment: FRET or BRET; equilibrium titration of TA transfer from Sgt2 to Get3: 20-50 nM purified Sgt2•TA^Cm, 150 nM Sgt2, 150 nM Get4/5, 2 mM ATP, varied Get3^BDP; GET buffer, 25°C; apparent K1/2 at 150 nM Sgt2
[8] = target: Bos1-FisC model TA substrate labelled with Cm (S. cerevisiae); experiment: as above
[9] = target: 3AG model TA substrate labelled with Cm (S. cerevisiae) (UniProt P25385); experiment: as above
[10] = target: Bos1 model TA substrate labelled with 7-hydroxycoumaryl ethylglycine (Cm) (S. cerevisiae) (UniProt P25385); experiment: as above
[11] = target: 2AG model TA substrate labelled with Cm (S. cerevisiae) (UniProt P25385); experiment: as above
[12] = target: 4AG model TA substrate labelled with Cm (S. cerevisiae) (UniProt P25385); experiment: as above
[13] = target: 6AG model TA substrate labelled with Cm (S. cerevisiae) (UniProt P25385); experiment: FRET or BRET; pulse-chase: 20-50 nM preformed purified Get3^BDP•TA^Cm chased with a 10-fold excess of unlabeled Get3; loss of FRET followed in time
[14] = target: 5AG model TA substrate labelled with Cm (S. cerevisiae) (UniProt P25385); experiment: as above
[15] = target: Bos1-FisC model TA substrate labelled with Cm (S. cerevisiae); experiment: as above
[16] = target: 3AG model TA substrate labelled with Cm (S. cerevisiae) (UniProt P25385); experiment: as above
[17] = target: Bos1 model TA substrate labelled with 7-hydroxycoumaryl ethylglycine (Cm) (S. cerevisiae) (UniProt P25385); experiment: as above
[18] = target: 2AG model TA substrate labelled with Cm (S. cerevisiae) (UniProt P25385); experiment: as above
[19] = target: 4AG model TA substrate labelled with Cm (S. cerevisiae) (UniProt P25385); experiment: as above
[20] = target: Bos1 model TA substrate labelled with 7-hydroxycoumaryl ethylglycine (Cm) (S. cerevisiae) (UniProt P25385); experiment: FRET or BRET; stopped-flow time course of TA transfer from Sgt2 to Get3^BDP without Get4/5

k fast of TA transfer from Sgt2 to Get3 (fast phase) [1]: 0.151 s⁻¹
k slow of TA transfer from Sgt2 to Get3 (slow phase) [1]: 0.023 s⁻¹
t1/2 of TA transfer from Sgt2 to Get3 [1]: 11.8 s
k fast of TA transfer from Sgt2 to Get3 (fast phase) [2]: 0.063 s⁻¹
k slow of TA transfer from Sgt2 to Get3 (slow phase) [2]: 0.009 s⁻¹
t1/2 of TA transfer from Sgt2 to Get3 [2]: 12.3 s
k fast of TA transfer from Sgt2 to Get3 (fast phase) [3]: 0.164 s⁻¹
k slow of TA transfer from Sgt2 to Get3 (slow phase) [3]: 0.017 s⁻¹
t1/2 of TA transfer from Sgt2 to Get3 [3]: 4.8 s
k fast of TA transfer from Sgt2 to Get3 (fast phase) [4]: 0.047 s⁻¹
k slow of TA transfer from Sgt2 to Get3 (slow phase) [4]: 0.011 s⁻¹
t1/2 of TA transfer from Sgt2 to Get3 [4]: 17.7 s
k fast of TA transfer from Sgt2 to Get3 (fast phase) [5]: 0.077 s⁻¹
k slow of TA transfer from Sgt2 to Get3 (slow phase) [5]: 0.007 s⁻¹
t1/2 of TA transfer from Sgt2 to Get3 [5]: 13.5 s
k fast of TA transfer from Sgt2 to Get3 (fast phase) [6]: 0.183 s⁻¹
k slow of TA transfer from Sgt2 to Get3 (slow phase) [6]: 0.033 s⁻¹
t1/2 of TA transfer from Sgt2 to Get3 [6]: 6.3 s
K1/2 (Get3 for 50% TA transfer from Sgt2, at 150 nM Sgt2) [7]: 10 nM
K1/2 (Get3 for 50% TA transfer from Sgt2, at 150 nM Sgt2) [8]: 9.2 nM
K1/2 (Get3 for 50% TA transfer from Sgt2, at 150 nM Sgt2) [9]: 3.7 nM
K1/2 (Get3 for 50% TA transfer from Sgt2, at 150 nM Sgt2) [10]: 5.2 nM
K1/2 (Get3 for 50% TA transfer from Sgt2, at 150 nM Sgt2) [11]: 6.4 nM
K1/2 (Get3 for 50% TA transfer from Sgt2, at 150 nM Sgt2) [12]: 5.7 nM
koff [13]: 0.00333 s⁻¹
koff [14]: 0.000567 s⁻¹
koff [15]: 0.000483 s⁻¹
koff [16]: 0.000433 s⁻¹
koff [17]: 0.0003 s⁻¹
koff [18]: 0.000383 s⁻¹
koff [19]: 0.000283 s⁻¹
k fast of TA transfer from Sgt2 to Get3 (fast phase) [20]: 0.0094 s⁻¹
k slow of TA transfer from Sgt2 to Get3 (slow phase) [20]: 0.003 s⁻¹
t1/2 of TA transfer from Sgt2 to Get3 [20]: 98 s
B1: BODIPY-FL-labeled ybbR-Get3 (enzyme)
chain: MDLTVEPNLHSLITSTTHKWIFVGGKGGVGKTTSSCSIAIQMALSQPNKQFLLISTDPAHNLSDAFGEKFGKDARKVTGMNNLSCMEIDPSAALKDMNDMAVSRANNNGSDGQGDDLGSLLQGGALADLTGSIPGIDEALSFMEVMKHIKRQEQGEGETFDTVIFDTAPTGHTLRFLQLPNTLSKLLEKFGEITNKLGPMLNSFMGAGNVDISGKLNELKANVETIRQQFTDPDLTTFVCVCISEFLSLYETERLIQELISYDMDVNSIIVNQLLFAENDQEHNCKRCQARWKMQKKYLDQIDELYEDFHVVKMPLCAGEIRGLNNLTKFSQFLNKEYNPITDGKVIYELEDKE
modifications: CoA-BODIPY-FL enzymatically conjugated to the ybbR tag by the Sfp phosphopantetheinyl transferase
